Laboratory results: US20190194334A1

Target: cell surface (plasma membrane) nucleolin of human tumor cells (human) (UniProt P19338)
Assay: flow cytometry of non-permeabilized MCF-7 cells, dot plot of side scatter against FITC fluorescence [B]

Sequence of UniProt P19338 (P19338 2-710 limits assumed): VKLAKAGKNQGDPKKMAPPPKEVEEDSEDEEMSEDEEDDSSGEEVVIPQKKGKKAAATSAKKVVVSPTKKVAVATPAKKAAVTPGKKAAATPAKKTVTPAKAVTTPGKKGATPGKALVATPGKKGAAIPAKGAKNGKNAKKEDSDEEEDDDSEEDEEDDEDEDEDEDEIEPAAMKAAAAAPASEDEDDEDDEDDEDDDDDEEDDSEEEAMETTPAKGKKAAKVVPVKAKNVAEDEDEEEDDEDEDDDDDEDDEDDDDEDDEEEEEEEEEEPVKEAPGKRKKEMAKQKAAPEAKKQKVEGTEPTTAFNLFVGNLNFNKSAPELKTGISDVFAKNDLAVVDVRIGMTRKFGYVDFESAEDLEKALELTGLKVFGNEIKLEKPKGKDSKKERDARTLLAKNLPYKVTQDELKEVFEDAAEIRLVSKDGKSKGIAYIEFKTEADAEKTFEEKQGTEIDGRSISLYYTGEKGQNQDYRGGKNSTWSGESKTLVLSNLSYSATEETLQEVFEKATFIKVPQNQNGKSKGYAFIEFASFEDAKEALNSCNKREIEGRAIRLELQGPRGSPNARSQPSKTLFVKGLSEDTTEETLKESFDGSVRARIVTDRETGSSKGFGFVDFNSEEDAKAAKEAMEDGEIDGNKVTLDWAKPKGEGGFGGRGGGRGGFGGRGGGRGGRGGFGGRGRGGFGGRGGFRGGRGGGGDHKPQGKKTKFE

How did the percent of cells in the FITC-positive gate turn out when Control IgG-FITC (antibody) was run?
The percent of cells in the FITC-positive gate was 1.5%.
